# Measurements reported in patent publication US20050227220A1, “Compositions and Methods for Evaluating and Designing Nuclear Receptor Ligands that Modulate Co-Regulator Affinity” (priority 2002, published 2005).
# No end group written: not given here. fluorescein = fluorescein: fluorescein label attached at the N-terminus of the peptide
# T1: TRβ ligand binding domain (UniProt P10828 202-461, limits assumed)
# T1 construct: also called Thyroid Receptor LBD; TRβ LBD
# T1 sequence (looked up): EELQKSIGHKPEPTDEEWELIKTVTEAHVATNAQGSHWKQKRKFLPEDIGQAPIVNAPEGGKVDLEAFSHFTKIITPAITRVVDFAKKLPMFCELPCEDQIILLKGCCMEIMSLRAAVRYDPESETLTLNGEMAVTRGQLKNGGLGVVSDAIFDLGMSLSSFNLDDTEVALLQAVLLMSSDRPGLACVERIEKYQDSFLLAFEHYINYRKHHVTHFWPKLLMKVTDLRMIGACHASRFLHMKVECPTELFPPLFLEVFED
# T2: human PPARα ligand binding domain (amino acids 192-468) (human, UniProt Q07869 192-468)
# T2 construct: range 192-468; placed at the N-terminus here; Biotinylated for FRET; also called PPARα LBD
# T2 sequence: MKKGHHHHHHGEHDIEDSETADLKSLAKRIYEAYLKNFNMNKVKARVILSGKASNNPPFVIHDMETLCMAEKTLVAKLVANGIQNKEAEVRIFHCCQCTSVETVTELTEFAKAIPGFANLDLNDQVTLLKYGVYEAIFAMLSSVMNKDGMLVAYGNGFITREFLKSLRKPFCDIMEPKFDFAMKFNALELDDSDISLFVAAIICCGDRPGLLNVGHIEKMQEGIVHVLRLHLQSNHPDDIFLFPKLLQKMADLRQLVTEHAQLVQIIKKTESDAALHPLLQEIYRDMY
# T3: RARα ligand binding domain (amino acids 146-432) (UniProt P10276 146-432)
# T3 construct: range 146-432; not shown: His-tag
# T3 sequence (looked up): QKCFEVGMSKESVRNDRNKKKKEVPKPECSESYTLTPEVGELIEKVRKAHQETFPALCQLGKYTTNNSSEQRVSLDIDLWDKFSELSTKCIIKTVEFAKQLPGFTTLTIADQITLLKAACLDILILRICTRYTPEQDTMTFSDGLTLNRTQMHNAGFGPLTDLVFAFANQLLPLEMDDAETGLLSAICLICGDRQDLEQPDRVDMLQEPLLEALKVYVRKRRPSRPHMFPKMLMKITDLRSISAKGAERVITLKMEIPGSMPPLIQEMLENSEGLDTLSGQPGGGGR
# T4: biotin-NCOR ID-C peptide (NCoR amino acids 2251-2275) (N-terminal biotin)
# T4 construct: also called NCOR-derived co-repressor peptide
# T4 peptide: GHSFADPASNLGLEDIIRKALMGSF
# T5: TRAP220 peptide (amino acids 575-599) (not fully specified; printed as N-terminal biotin in Example 1; label in the polarization assay not specified)
# T5 construct: also called TRAP220 575-599
# T5 peptide: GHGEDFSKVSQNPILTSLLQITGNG
# B1: VP16-human PPARα (full length) (other)
# chain: LSTAPPTDVSLGDELHLDGEDVAMAHADALDDFDLDMLGDGDSPGPGFTPHDSAPYGALDMADFEFEQMFTDALGIDEYGGMVDTESPLCPLSPLEAGDLESPLSEEFLQEMGNIQEISQSIGEDSSGSFGFTEYQYLGSCPGSDGSVITDTLSPASSPSSVTYPVVPGSVDESPSGALNIECRICGDKASGYHYGVHACEGCKGFFRRTIRLKLVYDKCDRSCKIQKKNRNKCQYCRFHKCLSVGMSHNAIRFGRMPRSEKAKLKAEILTCEHDIEDSETADLKSLAKRIYEAYLKNFNMNKVKARVILSGKASNNPPFVIHDMETLCMAEKTLVAKLVANGIQNKEAEVRIFHCCQCTSVETVTELTEFAKAIPGFANLDLNDQVTLLKYGVYEAIFAMLSSVMNKDGMLVAYGNGFITREFLKSLRKPFCDIMEPKFDFAMKFNALELDDSDISLFVAAIICCGDRPGLLNVGHIEKMQEGIVHVLRLHLQSNHPDDIFLFPKLLQKMADLRQLVTEHAQLVQIIKKTESDAALHPLLQEIYRDMY
# notes: also called VP16 full length PPARα
# B2: Fluoroscein-NCOR ID-C peptide (NCoR amino acids 2251-2275) (peptide)
# peptide: fluorescein-GHSFADPASNLGLEDIIRKALMGSF
# notes: also called NCOR peptide; NCoR 2251-2275
# B3: human PPARδ ligand binding domain (amino acids 139-441) (receptor)
# chain: MKKGHHHHHHGSHNAIRFGRMPEAEKRKLVAGLTANEGSQYNPQVADLKAFSKHIYNAYLKNFNMTKKKARSILTGKASHTAPFVIHDIETLWQAEKGLVWKQLVNGLPPYKEISVHVFYRCQCTTVETVRELTEFAKSIPSFSSLFLNDQVTLLKYGVHEAIFAMLASIVNKDGLLVANGSGFVTREFLRSLRKPFSDIIEPKFEFAVKFNALELDDSDLALFIAAIILCGDRPGLMNVPRVEAIQDTILRALEFHLQANHPDAQYLFPKLLQKMADLRQLVTEHAQMMQRIKKTETETSLHPLLQEIYKDMY
# modifications: Biotinylated (site not stated) in the FRET assays; unlabelled in fluorescence polarization and SPR.
# notes: placed at the N-terminus here; Biotinylated for FRET; also called PPARδ LBD
# B4: RXRα ligand binding domain (amino acids 225-462) (receptor, UniProt P19793 225-462, looked up)
# chain: SANEDMPVERILEAELAVEPKTETYVEANMGLNPSSPNDPVTNICQAADKQLFTLVEWAKRIPHFSELPLDDQVILLRAGWNELLIASFSHRSIAVKDGILLATGLHVHRNSAHSAGVGAIFDRVLTELVSKMRDMQMDKTELGCLRAIVLFNPDSKGLSNPAEVEALREKVYASLEAYCKHKYPEQPGRFAKLLLRLPALRSIGLKCLEHLFFFKLIGDTPIDTFLMEMLEAPHQMT
# notes: range 225-462; Biotinylated for FRET; also called RXRα LBD; not shown: His-tag
# B5: human PPARγ ligand binding domain (amino acids 206-477) (receptor)
# chain: MKKGHHHHHHGPESADLRALAKHLYDSYIKSFPLTKAKARAILTGKTTDKSPFVIYDMNSLMMGEDKIKFKHITPLQEQSKEVAIRIFQGCQFRSVEAVQEITEYAKSIPGFVNLDLNDQVTLLKYGVHEIIYTMLASLMNKDGVLISEGQGFMTREFLKSLRKPFGDFMEPKFEFAVKFNALELDDSDLAIFIAVIILSGDRPGLLNVKPIEDIQDNLLQALELQLKLNHPESSQLFAKLLQKMTDLRQIVTEHVQLLQVIKKTETDMSLHPLLQEIYKDLY
# notes: range 206-477; placed at the N-terminus here; Biotinylated for FRET; also called PPARγ LBD
# What was measured:
# GAL4-NcoR (1944-end) = biological target: T6, GAL4-NcoR (1944-end) (UniProt P04386 1-147; O75376 1944-2440); assay: mammalian two-hybrid in CV-1 cells
# T6 construct: range 1-147;range 1944-end; Two-hybrid construct; also called larger fragment of NCoR (1944-end)
# [1] = biological target: T1, TRβ ligand binding domain; assay: fluorescence polarization, apparent affinity, with T3
# [2] = biological target: B5; assay: fluorescence polarization, apparent affinity, with GW1929
# [3] = biological target: B3; assay: as above
# [4] = biological target: B5; assay: fluorescence polarization, apparent affinity, with rosiglitazone
# [5] = biological target: B3; assay: as above
# [6] = biological target: T7, ERβ ligand binding domain (amino acids 257-530) (UniProt Q92731 257-530); assay: fluorescence polarization, 10 nM fluorescein peptide, LBD titrated, no ligand
# T7 construct: range 257-530; not shown: His-tag
# [7] = biological target: B5; assay: as above
# [8] = biological target: B3; assay: as above
# [9] = biological target: T2, human PPARα ligand binding domain …; assay: as above
# [10] = biological target: T3, RARα ligand binding domain (amino acids …); assay: as above
# [11] = biological target: T1, TRβ ligand binding domain; assay: as above
# [12] = biological target: B4; assay: as above
# [13] = biological target: B5; assay: fluorescence polarization, apparent affinity, no ligand
# [14] = biological target: T1, TRβ ligand binding domain; assay: as above
# [15] = biological target: T4, biotin-NCOR ID-C peptide (NCoR amino …); assay: FRET, with GW7845
# [16] = biological target: T4, biotin-NCOR ID-C peptide (NCoR amino …); assay: FRET, with GW1929
# [17] = biological target: B2; assay: fluorescence polarization, with GW1929
# [18] = biological target: B5; assay: FRET, biotinylated PPAR LBD and RXRα LBD on labelled streptavidin
# [19] = biological target: B3; assay: as above
# [20] = biological target: T2, human PPARα ligand binding domain …; assay: as above
# [21] = biological target: T5, TRAP220 peptide (amino acids 575-599); assay: fluorescence polarization, with rosiglitazone
# [22] = biological target: B2; assay: fluorescence polarization, with rosiglitazone
# [23] = biological target: T5, TRAP220 peptide (amino acids 575-599); assay: fluorescence polarization, with GW1929
# T7 sequence (Q92731 257-530 limits assumed): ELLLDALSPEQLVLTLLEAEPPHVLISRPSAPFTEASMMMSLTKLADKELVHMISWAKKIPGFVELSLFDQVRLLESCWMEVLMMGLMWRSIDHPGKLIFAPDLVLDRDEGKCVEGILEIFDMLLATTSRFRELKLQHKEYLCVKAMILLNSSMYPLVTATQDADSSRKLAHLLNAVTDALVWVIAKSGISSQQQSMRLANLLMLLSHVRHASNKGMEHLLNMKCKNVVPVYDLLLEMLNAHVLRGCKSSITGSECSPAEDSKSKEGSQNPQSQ
binder,measurement,setting,value
B1,binding result,GAL4-NcoR (1944-end),binds
B2,Kd,[1],6.2 µM
same,Kd,[2],6.7 µM
same,Kd,[3],0.44 µM
same,Kd,[4],4.7 µM
same,Kd,[5],5 µM
same,Kd,[6],37 µM
same,Kd,[7],1.3 µM
same,Kd,[8],5.7 µM
same,Kd,[9],6.1 µM
same,Kd,[10],2 µM
same,Kd,[11],1.3 µM
same,Kd,[12],25 µM
same,Kd,[13],1.2 µM
same,Kd,[14],0.72 µM
B3,log α (ratio of cofactor affinities with and without saturating ligand),[15],0.14
same,log α (ratio of cofactor affinities with and without saturating ligand),[16],0.52
same,fold increase in affinity with GW1929 against no ligand,[17],12 fold
B4,binding result,[18],binds
same,binding result,[19],binds
same,binding result,[20],binds
B5,fold increase in affinity with rosiglitazone against no ligand,[21],~3 fold
same,fold decrease in affinity with rosiglitazone against no ligand,[22],~4 fold
same,fold increase in affinity with GW1929 against no ligand,[23],5 fold
same,fold decrease in affinity with GW1929 against no ligand,[17],5 fold
